Test results from patent EP2336190A2 (Genentech, Inc., dated 2011).

Assays:
VEGF [1] = target: T1, VEGF (human, UniProt P15692-4 27-191, limits assumed); assay: BIAcore-2000 SPR, wt = Y0192
T1 construct: also called human VEGF; vascular endothelial growth factor
Target sequence in this assay (P15692 other isoform, or with tags, fused parts or gaps limits assumed): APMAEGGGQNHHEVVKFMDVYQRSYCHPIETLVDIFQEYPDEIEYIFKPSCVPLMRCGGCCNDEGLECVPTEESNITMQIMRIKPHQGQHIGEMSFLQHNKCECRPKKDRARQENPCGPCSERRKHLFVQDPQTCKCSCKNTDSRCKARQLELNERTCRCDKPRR

rhVEGF165 = rhVEGF165 (human, UniProt P15692 27-191); assay: cell-based or functional assay
VEGF [2] = target: T1, VEGF; assay: KDR-IgG competition ELISA, biotinylated VEGF, 10% human serum
VEGF121 [3] = target: T2, VEGF121 (human, UniProt P15692 27-147); assay: BIAcore SPR, VEGF121 immobilised, Fab in solution
T2 construct: mature; also called Purified VEGF121
T2 sequence (looked up): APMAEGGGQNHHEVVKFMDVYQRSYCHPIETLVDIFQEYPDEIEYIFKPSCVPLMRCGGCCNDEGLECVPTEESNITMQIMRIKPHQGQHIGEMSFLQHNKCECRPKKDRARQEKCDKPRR

VEGF121 [4] = target: T2, VEGF121; assay: BIAcore SPR, VEGF121 immobilised

B1: Y0244-1 (Fab, V domains shown)
VH: EVQLVESGGGLVQPGGSLRLSCAASGYTFTNYGINWVRQAPGKGLEWVGWINTYTGEPTYAADFKRRFTFSVDVSKSTAYLQMNSLRAEDTAVYYCAKYPHYYGSSHWYFDVWGQGTL
VL: DIQLTQSPSSLSASVGDRVTITCRANEQLSNYLNWYQQKPGKAPKVLIYFTSSLHSGVPSRFSGSGSGTDFTLTISSLQPEDFATYYCQQYSTVPWTFGQGTKVEIKR
notes: only the randomized region is printed, substitutions deduced against Y0192; soluble Fab from E. coli 34B8
In the case of B1, the “Kd (wt) / Kd (mut)” value (VEGF [1]) is reported as 3.6 ratio.

B2: Y0244-4 (Fab, V domains shown)
VH: EVQLVESGGGLVQPGGSLRLSCAASGYTFTNYGINWVRQAPGKGLEWVGWINTYTGEPTYAADFKRRFTFSIDKSKSTAYLQMNSLRAEDTAVYYCAKYPHYYGSSHWYFDVWGQGTL
VL: DIQLTQSPSSLSASVGDRVTITCRANEQLSNYLNWYQQKPGKAPKVLIYFTSSLHSGVPSRFSGSGSGTDFTLTISSLQPEDFATYYCQQYSTVPWTFGQGTKVEIKR
notes: substitutions deduced against Y0192; soluble Fab
In the case of B2, the “Kd (wt) / Kd (mut)” value (VEGF [1]) is reported as 0.9 ratio.

B3: Y0313-3 (Fab, V domains shown)
VH: EVQLVESGGGLVQPGGSLRLSCAASGYTFTNYGINWVRQAPGKGLEWVGWINTYTGEPTYAADFKRRFTFSLDTSKSTAYLQMNSLRAEDTAVYYCAKYPYYYGSSHWYFDVWGQGTL
VL: DIQLTQSPSSLSASVGDRVTITCRANEQLSNYLNWYQQKPGKAPKVLIYFTSSLHSGVPSRFSGSGSGTDFTLTISSLQPEDFATYYCQQYSTVPWTFGQGTKVEIKR
notes: Reversion mutant of Y0238-3; soluble Fab
B3 was tested, and the “Kd (wt) / Kd (mut)” value (VEGF [1]) was 4.5 ratio.

B4: Y0313-1 (Fab, V domains shown)
VH: EVQLVESGGGLVQPGGSLRLSCAASGYDFTHYGMNWVRQAPGKGLEWVGWINTYTGEPTYAADFKRRFTFSLDTSKSTAYLQMNSLRAEDTAVYYCAKYPYYYGTSHWYFDVWGQGTL
VL: DIQLTQSPSSLSASVGDRVTITCRANEQLSNYLNWYQQKPGKAPKVLIYFTSSLHSGVPSRFSGSGSGTDFTLTISSLQPEDFATYYCQQYSTVPWTFGQGTKVEIKR
notes: Combination variant: Y0243-1 plus VH3 H101Y and S105T; soluble Fab
B4 was tested, and the “potency in inhibiting VEGF-induced HuVEC DNA synthesis, against the wild-type Fab (Y0192)” value (rhVEGF165) was 30 fold and the “Kd (wt) / Kd (mut)” value (VEGF [1]) was at least 20 ratio.

B5: muMAb VEGF A.4.6.1 (antibody, V domains shown)
VH: EIQLVQSGPELKQPGETVRISCKASGYTFTNYGMNWVKQAPGKGLKWMGWINTYTGEPTYAADFKRRFTFSLETSASTAYLQISNLKNDDTATYFCAKYPHYYGSSHWYFDVWGAGTTVTVSS
VL: DIQMTQTTSSLSASLGDRVIISCSASQDISNYLNWYQQKPDGTVKVLIYFTSSLHSGVPSRFSGSGSGTDYSLTISNLEPEDIATYYCQQYSTVPWTFGGGTKLEIKR
For B5, the IgG1/chIgG1 (EC50 ratio) (VEGF [2]) was 0.759.

B6: hu2.10 (Fab, V domains shown)
VH: EVQLVESGGGLVQPGGSLRLSCAASGYTFTNYGMNWIRQAPGKGLEWVGWINTYTGEPTYAADFKRRFTISLDTSASTVYLQMNSLRAEDTAVYYCAKYPHYYGSSHWYFDVWGQGTLVTVSS
VL: DIQMTQSPSSLSASVGDRVTITCSASQDISNYLNWYQQKPGKAPKLLIYFTSSLHSGVPSRFSGSGSGTDYTLTISSLQPEDFATYYCQQYSTVPWTFGQGTKVEIK
notes: Phage-selected consensus clone, purified soluble Fab with human constant domains; also called consensus clone hu2.10
In the case of B6, the “KD(A4.6.1)/KD(mut) as headed (values are KD(mut) over KD of the chimera)” value (VEGF121 [3]) is reported as 35 ratio.

B7: hu2.10V (Fab, V domains shown)
VH: EVQLVESGGGLVQPGGSLRLSCAASGYTFTNYGMNWIRQAPGKGLEWVGWINTYTGEPTYAADFKRRFTISLDTSASTVYLQMNSLRAEDTAVYYCAKYPHYYGSSHWYFDVWGQGTLVTVSS
VL: DIQMTQSPSSLSASVGDRVTITCSASQDISNYLNWYQQKPGKAPKVLIYFTSSLHSGVPSRFSGSGSGTDYTLTISSLQPEDFATYYCQQYSTVPWTFGQGTKVEIK
notes: Soluble Fab with human constant domains; also called hu2.10 with mutation VL Leu->Val
B7 was tested, and the “KD(A4.6.1)/KD(mut) as headed (values are KD(mut) over KD of the chimera)” value (VEGF121 [3]) was 5.8 ratio and the “fold improvement in KD over hu2.10” value (VEGF121 [4]) was 6 fold.
